Assay results published in US8076094.

Key:
[1] = target: histone H3 in nucleosomes purified from HeLa cells (UniProt P68431)
GST-H3 1-15 T11A = GST-H3 1-15 T11A (UniProt P68431)
[2] = test system: GST control protein [GST: P08515]
GST-H3 1-44 = GST-H3 1-44 (UniProt P68431)

Substance	phosphorylation in in vitro kinase assay, Western blot with α-phosphoH3T11 [1]	phosphorylation in in vitro kinase assay (GST-H3 1-15 T11A)	phosphorylation in in vitro kinase assay (32P, SDS-PAGE, autoradiography) [2]	phosphorylation in in vitro kinase assay (32P, SDS-PAGE, autoradiography) (GST-H3 1-44)
purified recombinant PRK1 (ProQinase GmbH)	PRK1 phosphorylates nucleosomes at H3T11	mutation of threonine 11 to alanine in H3 1-15 (H3 1-15 T11A) abolishes phosphorylation	–	–
Myc-PRK1, immunoprecipitated from 293 cell lysates	–	–	The GST control protein is not phosphorylated, thus demonstrating specificity	GST-H3 1-44 is phosphorylated by PRK1
